B1: SRP2901-E03 (antibody, V domains shown)
VH: MEVQLVESGGGLVQPGGSLRLSCAASGFSISSYDMSWVRQAPGKGLEWIGIIGSNGRTYYPDSVKGRFTISRDNSKNTVTLQMNSLRAEDTAVYYCARGLYDGTGNIWGQGTLVTVSS
VL: MELVMTQSPPTLSLSPGERVTLSCRASQSVYGNNWLSWYQQKPGQAPRLLIYGASKLATSIPARFSGSGSGTQFTLTISSLQPEDFAVYYCQGTYYSGDWYFAFGQGTKVEIK
B2: SRP2901-F01 (antibody, V domains shown)
VH: MQVQVVESGGGLVKPGGSLRLSCAASGFSISSYDMSWIRQAPGKGLEWIGIIGSNGRTYYADSVKGRFTISRNTNENTVYLQMNSLRAEDTAVYYCARGLYDGTGNIWGQGTLVTVSS
VL: MDIQMTQSPSSLSASVGDRVTITCQASQSVYGNNWLSWYQQKPGKAPKLLIYGASKLASGVPSRFSGSGSGTDFTLTISSLQPEDFATYYCQGTYYSGDWYFAFGGGTKVEIK
B3: SRP2901-D03 (antibody, V domains shown)
VH: MEVQLVESGGGLVQPGGSLRLSCAASGFSISSYDMSWVRQAPGKGLEWIGIIGSNGRTYYPDSVKGRFTISRDNSKNTVTLQMNSLRAEDTAVYYCARGLYDGTGNIWGQGTLVTVSS
VL: MDLQMTQSPSSLSASVGDRVTITCRASQSVYGNNWLSWYQQKPGKAPKLLIYGASKLASGVPSRFSGSGSGTQFTLTISSLQPEDFATYYCQGTYYSGDWYFAFGQGTKVEIK
B4: SRP2901-B05 (antibody, V domains shown)
VH: MQVQVQESGPGLVKPPGTLSLTCAVSGFSLSYYGVSWVRQPPGKGLEWIGTIDSSGRTYYNPSLKSRVTISNDNAPNTVSLKLSSVTAADTAVYYCARDFYGWNSGALDIWGQGTLVTVSS
VL: MDLQLTQSPSTLSASVGDRVTITCRASQSVYSNKYLSWYQQKPGKAPKLLIYKASTLASGVPSRFSGSGSGTEFTLTISSLQPDDFATYYCAAAYSDDSDTAFGQGTKVEIK

For the test, the system named is BxPC3 cells. Put plainly: Secondary ADC cell killing assay (antibody + anti-human Fc nanobody conjugated to SC236) on BxPC3. In kind it is cell-based. The following applies: Table 17; nanobody-SC236 20 nM, 120 hrs. The protocol:
The internalization ability of the lead antibodies was evaluated by an ADC cell killing assay on Tissue Factor positive BxPC3 cells. A total of 625 cells in a volume of 25 μL were seeded in each well of a 384-well flat bottom white polystyrene plate. Lead antibodies were formulated at 4-fold starting concentration in the cell culture medium and filtered through MultiScreenHTS 96-Well Filter Plates (Millipore; Billerica, Massachusetts). 12.5 μL of antibody was added into each treatment well, and 12.5 μL of anti-human Fc nanobody conjugated to SC236 was then added into each well at a fixed final concentration of 20 nM. Assay plates were cultured at 37° C. in a CO2 incubator for 120 hrs before assay. For cell viability measurement, 30 μL of Cell Titer-Glo® reagent (Promega Corp. Madison, WI) was added into each well, and plates were processed as per product instructions. Relative luminescence was measured on an ENVISION® plate reader (Perkin-Elmer; Waltham, MA). Relative luminescence readings were converted to percent viability using untreated cells as controls. Data was fitted with non-linear regression analysis, using a log (inhibitor) vs. response-variable slope, 4 parameter fit with GraphPad Prism (GraphPad v 5.0, Software; San Diego, California).
B1: the “BxPC3 Cell Killing Span (%)” value is 92.4% and the concentration giving a half-maximal response (EC50) (as a rule, the concentration that produces a half-maximal response) came out at 0.166 nM.

On to B2, for which the “BxPC3 Cell Killing Span (%)” value came out at 87% and the half-maximal effective concentration (EC50) worked out at 0.364 nM.

Consider B3, for which the “BxPC3 Cell Killing Span (%)” value was determined as 77.4% and the concentration giving a half-maximal response (EC50) stood at 0.184 nM.

As to B4, the “BxPC3 Cell Killing Span (%)” value is 84% and the concentration for a half-maximal effect (EC50) stood at 0.059 nM.

These data come from US12540197B2, “Anti-tissue factor antibodies and antibody conjugates, compositions comprising anti-tissue factor antibodies or antibody conjugates, and methods of making and using anti-tissue factor antibodies and antibody conjugates” (SUTRO BIOPHARMA, INC., priority 2023, dated 2026).
